One block for each molecule: values may come before it.
What was measured:
[1] = target: human serum albumin (human) (UniProt P02768); experiment: annotation in the curve's label on the competitive ELISA plot; the sheet does not say how this Kd was obtained (text paragraph 46 speaks of a reported Kd ~1x10^-9 M)
[2] = target: human serum albumin (human) (UniProt P02768); experiment: competitive ELISA: soluble binding protein competes with plate-immobilised single maximum moiety for biotinylated human serum albumin, streptavidin-peroxidase readout
[3] = target: human serum albumin (human) (UniProt P02768); experiment: SPR (Biacore), HSA immobilised on CM5 chip, 40 nM, mean+/-SD, N=4
[4] = target: human serum albumin (human) (UniProt P02768); experiment: competitive ELISA, ratio against construct 1 (Illustration 1.2)
[5] = target: human serum albumin (human) (UniProt P02768); experiment: competitive ELISA, slope around the 50% inhibition point (Illustration 1.2)
[6] = target: human serum albumin (human) (UniProt P02768); experiment: competitive ELISA, soluble construct against immobilised binding protein for biotinylated HSA (Illustration 1.2)
[7] = target: human serum albumin (human) (UniProt P02768); experiment: SPR (Biacore), HSA immobilised on CM5 chip
[8] = target: human serum albumin (human) (UniProt P02768); experiment: SPR (Biacore), HSA immobilised on CM5 chip, limited number of replicates
[9] = target: human serum albumin (human) (UniProt P02768); experiment: flow cytometry on beads, ratio against the single maximum moiety (Illustration 1.5)
[10] = target: human serum albumin (human) (UniProt P02768); experiment: flow cytometry, binding protein immobilised on beads, fluorescein labeled albumin (Illustration 1.5)
[11] = target: human IgG (from human serum; human immunoglobin G standard); experiment: extraction from diluted human serum with coated silica beads, gel/blot comparison with standards (Illustration 2.2)
[12] = target: IgG (biotinylated); experiment: competitive ELISA, soluble protein against immobilised two-moiety cassette for biotinylated IgG (Illustration 2.1)
[13] = target: IgG (biotinylated); experiment: competitive ELISA, ratio against one maximum domain (Illustration 2.1)
[14] = target: IgG (biotinylated); experiment: competitive ELISA, slope around the 50% inhibition point (Illustration 2.1)

- Kd [1]: 10 nM
- IC50 (read off the curve) (pmoles per well) [2]: 10
- Kd [3]: 0.7 nM
- kon [3]: 123000 M⁻¹ s⁻¹
Molecule: native material analogous to that of Sjöbring et al. (1991), streptococcal protein G

- R (ratio of 50% inhibition point, two maximum moieties / one maximum moiety) [4]: 0.4
- S (ratio of rate of change, two maximum moieties / one maximum moiety) [4]: 1.7
- rate of change [5]: 8.5
- IC50 [6]: 15 nM
- half-life [7]: 7410 days
- Kd [8]: < 0.01 nM
- koff [8]: < 1e-05 s⁻¹
- kon [8]: 300000 M⁻¹ s⁻¹
- F (ratio of apparent Kd, two maximum moieties / one maximum moiety) [9]: 0.67
- Kd [10]: 160 nM
B1: Construct "2" (functional cassette with two maximum moieties for human serum albumin) (designed binder, part only; not given: spacer and terminal segment, not shown: small tags and cut ends)
chain, part: AAALDQAKQAALKEFDRYGVSNYYKNLINKAKTVEGIMELQAQVVESAKKARISEATDGLSDFLKSQTSAEDTLKSIKLSEAKEMAIRELDAQGVSDFYKNKINNAKTVEGVVALKDLILNSLAAALDQAKQAALKEFDRYGVSNYYKNLINKAKTVEGIMELQAQVVESAKKARISEATDGLSDFLKSQTSAEDTLKSIKLSEAKEMAIRELDAQGVSDFYKNKINNAKTVEGVVALKDLILNSL

- percent of IgG extracted [11]: > 99%
- IC50 [12]: 1 nM
- R (ratio of 50% inhibition point, two maximum moieties / one maximum moiety) [13]: 0.6
- S (ratio of rate of change, two maximum moieties / one maximum moiety) [13]: 1.6
- rate of change [14]: 50
B2: functional cassette with two maximum moieties (six minimum moieties) for IgG (designed binder)
chain: LGIDPFTALPKTDTYKLILNGKTLKGETTTEAVDAATAEKVFKQYANDNGVDGEWTYDDATKTFTVTEKPEVIDASELTPAVTTYKLVINGKTLKGETTTEAVDAATAEKVFKQYANDNGVDGEWTYDDATKTFTVTEKPEVIDASELTPAVTTYKLVINGKTLKGETTTKAVDAETAEKAFKQYANDNGVDGVWTYDDATKTFTVTEMVTESRALPKTDTYKLILNGKTLKGETTTEAVDAATAEKVFKQYANDNGVDGEWTYDDATKTFTVTEKPEVIDASELTPAVTTYKLVINGKTLKGETTTEAVDAATAEKVFKQYANDNGVDGEWTYDDATKTFTVTEKPEVIDASELTPAVTTYKLVINGKTLKGETTTKAVDAETAEKAFKQYANDNGVDGVWTYDDATKTFTVTEMVTEKGELKLCITGDALVALPEGES

— patent publication US20130066046A1
